# Laboratory results as given in the DeepSol protein solubility set.
# Assay: soluble on expression in E. coli; label from the status in PepcDB or PDB records
row,Sequence,soluble on expression in E. coli
1,MDTPPTVFSIIIPVYNRPDEVRELLESLLIQTNSDFEVIIVEDGSSVCCDKEVDRVRELLRIQYVRVPNGGPAAARNIGARMAVGEYLLILDSDVVLPSGYIAAVKKRIEQMQADAFGGPDAAAEGFSPIQKAINYAMTSFFTTGGIRGGRRVRLDKFYPRSFNFGCKLSVYRQLGGFSEEMRFGEDIDFSLRLFKAGYNVCLFPEAFVFHKRRIDFKKFFRQVYNSGIARIHLQRRHPGSMKP,not soluble
2,MTKALFFDIDGTLVSFETHRIPSSTIEALEAAHAKGLKIFIATGRPKAIINNLSELQDRNLIDGYITMNGAYCFVGEEVIYKSAIPQEEVKAMAAFCEKKGVPCIFVEEHNISVCQPNEMVKKIFYDFLHVNVIPTVSFEEASNKEVIQMTPFITEEEEKEVLPSIPTCEIGRWYPAFADVTAKGDTKQKGIDEIIRHFGIKLEETMSFGDGGNDISMLRHAAIGVAMGQAKEDVKAAADYVTAPIDEDGISKAMKHFGII,soluble
3,MKPRQRQAAILEYLQKQGKCSVEELAQYFDTTGTTIRKDLVILEHAGTVIRTYGGVVLNKEESDPPIDHKTLINTHKKELIAEAAVSFIHDGDSIILDAGSTVLQIVPLLSRFNNITVMTNSLHIVNALSELDNEQTILMPGGTFRKKSASFHGQLAENAFEHFTFDKLFMGTDGIDLNAGVTTFNEVYTVSKAMCNAAREVILMADSSKFGRKSPNVVCSLESVDKLITDAGIDPAFRQALEEKGIDVIITGESNELEHHHHHH,soluble
4,MRGSHHHHHHTDPALRALGLKQVHHIAIIATDYAVSKAFYCDILGFTLQSEVYREARDSWKGDLALNGQYVIELFSFPFPPERPSRPEACGLRHLAFSVDDIDAAVAHLESHNVKCETIRVDPYTQKRFTFFNDPDGLPLELYEQGLCGR,soluble
5,MGSDKIHHHHHHMKNGKISESVLKRSVLKQLHTKSDRILFKPAVGEDCAVISMQAGGKTKLVTATQTFTLDVSDKHVRANCAVYDALNNIYAMGADPVGIELALLVPTTENEAVLRETVRAIDAVCEKAGIVVLGGHTQVSRAVKNIVVTVTAIGEAYEQALTPSSAAAPGMDVIVTGYVGLEGTAILANEKRTELETRFSKAFIDKSAAYIDHISTAMEAASAIGAGVAAIHDASQGGIFGALWDMAEASGIGLDIDLKKLPIRQDTIEISEFFDINPYKLLSGGSLIIIAADGTRVVRELEKTGQNAVIVGATTDSNDRVLISGEERRFLETAQTDEIYKVFN,not soluble
6,MGHHHHHHSHMHPWNQQVPDKESGGGSHGNAASSCSRFHYSYAGVHSESTHFSLVLLLDWAMAFILCPLTCPGECEGSTGKLECCLCLPSQWAVLTAAPHPYRWSQEAGRVGEGKIGKTGRPRPRQNSLPSLHFWSPVVMCL,not soluble
7,GSHMHRVINHPYYFPFNGKQAEDYLRSKERGDFVIRQSSRGDDHLAITWKLDKDLFQHVDIQEMEKENPLAMGKVLVVEGQRYHDLDQIIVEYLQNKIRLLNE,soluble
8,GSDGDALLKPCKLGDMQCLSSATEQFLEKTSKGIPQYDIWPIDPLVVTSLDVIAPSDAGIVIRFKNLNITGLKNQQISDFQMDTKAKTVLLKTKADLHIVGDIVIELTEQSKSFTGLYTADTNVIGAVRYGYNLKNDDNGVQHFEVQPETFTCESIGEPKITLSSDLSSALEKDSGNNSLEPDMEPLKTLRQAAICKIAEACYISVVHNIRASAKILPASSFFENLN,soluble
9,MMLVRSVFRSQLRPSVSGGLQSASCYSSLSAASAEAERTIREGPRNDWSRDEIKSVYDSPLLDLLFHGAQVHRHVHNFREVQQCTLLSIKTGGCSEDCSYCPQSSRYSTGVKAQRLMSKDAVIDAAKKAKEAGSTRFCMGAAWRDTIGRKTNFSQILEYIKEIRGMGMEVCCTLGMIEKQQALELKKAGLTAYNHNLDTSREYYPNVITTRSYDDRLETLSHVRDAGINVCSGGIIGLGEAEEDRIGLLHTLATLPSHPESVPINALLAVKGTPLEDQKPVEIWEMIRMIGTARIVMPKAMVRLSAGRVRFSMSEQALCFLAGANSIFTGEKLLTTPNNDFDADQLMFKTLGLIPKPPSFSEDDSESENCEKVASASH,not soluble
10,MGSDKIHHHHHHMSIDFYNQNASSFYASTVEVDSSSLLEQFTPYLPKGGSVLDAGCGSGRDSKRLIELGFHVDAFDASAALATLAQQLLGKPVRVATFMQFTSTLQYDGIWACASLLHVSKASLPDAFAHLASMLKSGGAFYCSFKYGQGEVERDGRSFTHCDEALLAELLTGSPLVIDKVWLTTDLRVGRENEQWLNAVLLKR,not soluble
11,MQTLTVVGLGRLGRSLGRLAADSGAYRLLDLMGRRAQPLAEGRDFVGAGRPVSEMRQLAPADLYLLAVPDAAIASCARGLAAAGVAPAGSVVFHASGVGDASLLRPLAEQGVLTASLHPAFSFADPKRAVEGFAGTLCALEGDEQACLRLEAFARALGGRPFRLAPGGKAAYHAGLSVASNFLVALTAMAGQLTARAGVPPELARQLLGGLMRQTLDNALELGPYDALTGPILRGDIGTVERHLEVLADTGLISAYRTLGRQVVELAGERLQEPARQQLLALLYLEHHHHHH,soluble
12,MGSDKIHHHHHHMCRWLAYTGNPIHLETVLFRAKHSLIDQSLHSELGATTTNGDGFGIGWYGDPDELPFRYRSVHPAWNDRNLREAARAIRSRMFVAHIRAATDTPVQETNCHPFRHGRWLFAHNGLIRDFHKLRRDLTMKVDPALFPTLEGSTDSELMFRLALTYGLEQTPLPALERMVGMVEETAARYRVDEPLNMTICATDGDRIIAVRYSSERQSRSLFHTTSFKHLHELYPHNPRIAEAGDDAFMVVSEPLVDLRGAWEEVAESTAIVAQGADVQQRPFNPRHT,not soluble
13,MHCNDGGPATLGLFSDSDLQQPARVEVLGPQSRVLRGFALPWVEALLPQLDAVLAAAPFRQMQTPGGFTMSVGLSSCGQLGWTTDRSGYRYSPIDPQSQRPWPALPKVFQELAEAAAEAAGFPGFAPDSCLINCYRPGAKMSLHQDKNERDYSAPIVSLSLGLPAIFLFGGRQRSDKSQRVALLHGDVVVWGGVDRLRYHGVLALKDGHHPLLGQQRINLTLRRAGLEHHHHHH,not soluble
14,DIGVWEYFPATDSLDWSDGVRRIHGVADEYEPSLDDALGFYHPDDRDKISKAVEQTIADREPYDIDLRIVRTDGDVRDVRAWGERVDDPQ,not soluble
15,MNNENKTHIADSVLDVIVVGGGINGAGIAADAAGRGLTVGLYEASDFASATSSASSKLIHGGLRYLEHYEFRLVSEALAEREVLLAKAPHIAKPMRFRLPHRPFLRPAWMIRAGLFLYDNLGKRTTLPASHSVDLAASGLLKSEITKGFEYSDCWVDDARLVILNAMAAEKNGAEVKNYCRVEKAIRVDNIWHVTVFDVQANVRFERKARALVNAAGPWVKQFFDDSLEDESPRNIRLVKGSHIVVPKIHNEEQAYILQNKDNRIVFVIPYMEDFSIIGTTDVEYKGDPRKVEISEEEVNYLIDVVNQHFVDQIKRDDVVWTYSGVRPLCDDESDSPQAITRDYTLELEQELDQAPLLSIFGGKLTTYRKLGETAMKMLNPYFAKMGTPWTRNVALPGGDFDYPRHQLVDNICCKHPWLAKETVTRYVNQFGTLTWTLLEGIECQSDMGELFAQGVYQAEIDYLIKHEFAKNAEDVLWRRTKLGLYLTEEEEKQIALYIESYLSHRHKVKLQNVILEHHHHHH,soluble
16,MSDLPRKAVTRTAKLAALPLGFAGRATWGLGKRIVGESAEIVGQQLQQRTAEQLFKVLGELKGGAMKFGQALSVFESALPEEVAGPYRAALTKLQEAAPPMPTRTVHSVLAERLGEDWQELFLEFEDKPAAAASIGQVHRGVWQDGREVAVKVQYPGAGEALLSDLNQLSRFARLLGPLVPGMDIKPLITELKDRVSEELDYDLEAQAQRTHAEVFDDDPDIVVPDVIHQCEQVLITEWIDGIPMSEIISNGTQEQRDRAGQLLAHFLFSGPARTGLLHADPHPGNFRLLPGGPRGEDDWRLGVLDFGTVDRLPGGLPEPIGEALRMTLDGEAEAVYEMLCAEGFVKESIELAPDAVLEYLLPIIEPARVDAFTFTRGWMRSQAARIGDPRSPAYQLAKQLNLPPAYLLIHRVTLSTIGVLCQLGATVRLRDELEEWLVGFVAEGEAEVEEGEEADEDVYETEGTAAEALEHHHHHH,not soluble
